Among the data in CN117866087A are 荧光信号强度 values, retold here.

The target in experiment [1] is pTau181标准品. Put plainly: bead sandwich flow cytometry; Tau-2 on beads as capture, PE-labelled anti-pTau181 antibody as detector, 5μg/mL pTau181 standard.
Experiment [2] addresses pTau181标准品. Put plainly: bead sandwich flow cytometry; Tau-3 on beads as capture, PE-labelled anti-pTau181 antibody as detector, 5μg/mL pTau181 standard.

B1: 实施例3纯化后的重组抗体(重组抗pTau181单克隆抗体) (antibody, mouse IgG1, kappa, V domains shown)
VH: LQQPGSEYARPGASVKLSCKASGYTFTSYWMHWVKQRHGQLLEWIGNIYPGSGSSNYDEKFKSKGTLTVDTSSSTAYMHLSSLTSEDSAVYYCTRSGWLLRDYAMDYWGQGTSVTVSS
VL: DVLMTQTPLSLPVSLGDQASISCRSSQSIVHSNGNTYLEWYLQKPGQSPKLLIYKVSTRFSGVPDRFSGSGSGTDFTLKISRVEAEDLGVYYCFQGSHVPYTFGGGTKLEIKA
modifications: 在实施例4中偶联藻红蛋白荧光素(方案1)或偶联微球(方案2)
Regarding B1, the results for the 荧光信号强度 in experiment [1] and in experiment [2] were 343000 and 420000, respectively.
